The target in this test is Flag-6xHis-TET2^CD (human). Nature of the test: pull-down.

Consider “Flag-WT1 (purified recombinant) (from UniProt P19544 1-449) (natural protein)”, for which the stoichiometry N (commonly a count of units in the complex or per binding partner) came to 1.

(Values after article PMC4336627.)
